Where a chain is given by its changes, count along the chain named.

A word on the Kd: it is the free concentration of one partner at which half of the binding sites on the other are occupied at equilibrium, for simple one-to-one binding. A higher Kd goes with weaker binding. Broadly, the koff is the rate constant with which the complex falls apart. High values mean a short-lived complex, low ones a long-lived complex. A word on the kon: it is the rate constant with which the complex forms. A higher kon goes with faster complex formation.

Assay [1] deals with T1, human FGFR2-his protein (huFGFR2-his) (human).
T1 construct: Extracellular region of human FGFR2 (NP_001138385.1) with a 6xHis tag; also called human FGFR2 extracellular protein
T1 chain: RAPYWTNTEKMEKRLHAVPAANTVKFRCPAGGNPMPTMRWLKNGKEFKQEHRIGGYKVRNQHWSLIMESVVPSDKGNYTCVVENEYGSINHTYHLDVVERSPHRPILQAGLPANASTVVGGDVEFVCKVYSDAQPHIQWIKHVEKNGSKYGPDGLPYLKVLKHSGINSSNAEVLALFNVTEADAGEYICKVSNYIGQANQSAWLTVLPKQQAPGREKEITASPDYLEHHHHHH
In words: BLI (ForteBio Octet RED96e), antibody on AHC sensor, FGFR2-his in solution, 1:1 model.

The target in assay [2] is T2, cynomolgus FGFR2-his protein (cynoFGFR2-his) (cynomolgus).
T2 construct: Extracellular region of cynomolgus FGFR2b (XP_028682763.1) with a 6xHis tag; also called cynomolgus FGFR2 extracellular protein
T2 chain: T1 chain with M35T
The experiment in a line: BLI (ForteBio Octet RED96e), antibody on AHC sensor, cynomolgus FGFR2-his in solution, 1:1 model. For orientation: In BLI a coated tip is dipped into the sample, and binding shifts an interference pattern.

Assay [3] has as its target T3, human FGFR3 protein (Sino Biological, Cat. No. 16486-H08H) (human, UniProt P22607-2 23-377).
T3 construct: Bought recombinant protein; construct not described
T3 sequence (looked up): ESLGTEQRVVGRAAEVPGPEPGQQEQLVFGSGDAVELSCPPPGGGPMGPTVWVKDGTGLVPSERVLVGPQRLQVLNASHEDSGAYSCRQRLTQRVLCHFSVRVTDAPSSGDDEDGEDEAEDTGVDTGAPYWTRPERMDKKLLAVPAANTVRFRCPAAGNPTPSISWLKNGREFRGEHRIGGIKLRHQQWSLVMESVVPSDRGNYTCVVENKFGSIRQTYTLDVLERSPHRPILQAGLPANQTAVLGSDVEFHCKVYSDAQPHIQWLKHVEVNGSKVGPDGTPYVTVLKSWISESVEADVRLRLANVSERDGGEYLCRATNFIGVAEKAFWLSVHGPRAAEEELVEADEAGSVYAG
The experiment in a line: ELISA, FGFR3 coated. On the technique in general: An ELISA detects its analyte on a solid surface through an enzyme-linked reagent.

Assay [4] has as its target T4, human FGFR1 protein (ACRO Biosystems, Cat. No. FG1-H5223) (human, UniProt P11362-14 22-285).
T4 construct: Bought recombinant protein; construct not described
T4 sequence (looked up): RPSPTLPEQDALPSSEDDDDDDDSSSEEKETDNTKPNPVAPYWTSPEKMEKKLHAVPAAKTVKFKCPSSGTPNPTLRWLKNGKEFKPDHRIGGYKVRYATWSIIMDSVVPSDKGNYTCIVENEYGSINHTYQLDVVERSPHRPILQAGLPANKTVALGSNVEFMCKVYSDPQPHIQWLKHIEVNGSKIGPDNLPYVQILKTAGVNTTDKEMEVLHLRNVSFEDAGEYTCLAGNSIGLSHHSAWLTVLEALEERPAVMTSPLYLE
In words: ELISA, FGFR1 coated.

The target of assay [5] is T5, human FGFR4 protein (Sino Biological, Cat. No. 10538-H08H) (human, UniProt P22455 22-369).
T5 construct: Bought recombinant protein; construct not described
In words: ELISA, FGFR4 coated.

B1: humanized monoclonal antibody huG11B8-5 (antibody, human IgG1, kappa, V domains shown)
VH: EVQLVQSGAEVKKPGATVKISCKASGYTFTDYNMDWVQQAPGKGLEWMGDINPKNGETFYAEKFQGRVTLTVDRSTNTAYMELSSLRSEDTAVYFCAKRDLNWYFDYWGQGTTVTVSS
VL: DIQMTQSPSSLSASVGDRVTITCQASDHINNWLAWYQQKPGKAPKLLISGATSLETGVPSRFSGSGSGKDYTFTISSLQPEDIATYYCQQYWSTPWTFGGGTKVEIKR
notes: huG11B8H-3 + huG11B8L-1; human IgG1 / kappa
For the molecule B1, in assay [1], the Kd came to 2.62 nM, the koff was 0.000431 s⁻¹ and the kon came out at 164000 M⁻¹ s⁻¹. In assay [2], this molecule yielded a Kd of 1.62 nM, an off-rate constant (koff) of 0.000866 s⁻¹ and a kon of 536000 M⁻¹ s⁻¹.

B2: bemarituzumab (antibody, human IgG1, kappa, V domains shown)
VH: QVQLVQSGAEVKKPGSSVKVSCKASGYIFTTYNVHWVRQAPGQGLEWIGSIYPDNGDTSYNQNFKGRATITADKSTSTAYMELSSLRSEDTAVYYCARGDFAYWGQGTLVTVSS
VL: DIQMTQSPSSLSASVGDRVTITCKASQGVSNDVAWYQQKPGKAPKLLIYSASYRYTGVPSRFSGSGSGTDFTFTISSLQPEDIATYYCQQHSTTPYTFGQGTKLEIKR
Regarding B2, the binding result in assay [3], in assay [4] and in assay [5] was “no binding” throughout.

These data come from patent publication EP4786494A1 (Nanjing Leads Biolabs Co., Ltd., dated 2026).
